Laboratory results as given in patent US20250263472A1 (IGGENIX, published 2025).

Target: T1, Natural Ara h 6 (InBio) (peanut, UniProt Q647G9 22-145)
T1 sequence (looked up): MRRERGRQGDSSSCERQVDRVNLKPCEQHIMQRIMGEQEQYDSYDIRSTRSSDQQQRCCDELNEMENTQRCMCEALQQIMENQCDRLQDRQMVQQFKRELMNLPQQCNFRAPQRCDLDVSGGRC
Assay: told in the description of Combination-1; assay not named

binding result: binds
B1: Molecule-1a (bispecific antibody, human IgG4 S228P, kappa)
heavy: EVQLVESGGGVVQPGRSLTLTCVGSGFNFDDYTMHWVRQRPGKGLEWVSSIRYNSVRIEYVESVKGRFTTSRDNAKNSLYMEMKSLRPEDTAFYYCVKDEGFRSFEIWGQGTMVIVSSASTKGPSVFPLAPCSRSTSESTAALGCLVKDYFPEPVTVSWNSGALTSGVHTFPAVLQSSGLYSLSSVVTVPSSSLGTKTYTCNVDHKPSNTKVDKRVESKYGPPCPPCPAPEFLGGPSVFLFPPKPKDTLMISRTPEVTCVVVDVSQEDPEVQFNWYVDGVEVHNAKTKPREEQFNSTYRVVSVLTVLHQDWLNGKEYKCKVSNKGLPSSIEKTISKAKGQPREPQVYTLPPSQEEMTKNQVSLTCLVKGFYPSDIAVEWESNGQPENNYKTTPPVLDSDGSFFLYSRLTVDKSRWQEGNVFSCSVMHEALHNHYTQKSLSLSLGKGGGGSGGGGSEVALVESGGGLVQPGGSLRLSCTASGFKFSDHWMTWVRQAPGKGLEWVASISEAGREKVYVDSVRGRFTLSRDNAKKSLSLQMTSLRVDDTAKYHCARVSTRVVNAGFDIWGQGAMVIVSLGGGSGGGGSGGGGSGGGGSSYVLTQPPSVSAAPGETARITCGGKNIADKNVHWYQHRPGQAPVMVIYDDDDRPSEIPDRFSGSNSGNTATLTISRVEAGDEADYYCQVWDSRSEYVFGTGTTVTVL
light: DIVMTQSPLSLPVTPGEPASISCRSTQSLEHSNGYHYLDWYVQKAGQSPQLLISLGSKRASGVPDRFSGSVSGTDFTLKISRVEAEDVGVYYCMQALQTWTFGQGTKVEIKRTVAAPSVFIFPPSDEQLKSGTASVVCLLNNFYPREAKVQWKVDNALQSGNSQESVTEQDSKDSTYSLSSTLTLSKADYEKHKVYACEVTHQGLSSPVTKSFNRGEC
notes: CMC liabilities removed; also called Molecule-1 (of Combination-1)
